The text below walks through data of patent US20260284207 (published 2026).

Values joined by “and” are separate entries in the source; they are usually repeats but may differ in a detail not shown here. Identical values can stand only once. FL = fluorescein (N-terminal fluorescent label)

Common to all, as to experiment: FP
Test [1] concerns the target T1, FBXO31/SKP1 complex (wild type) (human, UniProt Q5XUX0).
Test [2] concerns the target FBXO31 D334N/SKP1 (human, UniProt Q5XUX0).
For test [3], the target named is T1, FBXO31/SKP1 complex (wild type). This is another data set of the same source.

T1 sequence (Q5XUX0 whole entry, chain 1 of 2): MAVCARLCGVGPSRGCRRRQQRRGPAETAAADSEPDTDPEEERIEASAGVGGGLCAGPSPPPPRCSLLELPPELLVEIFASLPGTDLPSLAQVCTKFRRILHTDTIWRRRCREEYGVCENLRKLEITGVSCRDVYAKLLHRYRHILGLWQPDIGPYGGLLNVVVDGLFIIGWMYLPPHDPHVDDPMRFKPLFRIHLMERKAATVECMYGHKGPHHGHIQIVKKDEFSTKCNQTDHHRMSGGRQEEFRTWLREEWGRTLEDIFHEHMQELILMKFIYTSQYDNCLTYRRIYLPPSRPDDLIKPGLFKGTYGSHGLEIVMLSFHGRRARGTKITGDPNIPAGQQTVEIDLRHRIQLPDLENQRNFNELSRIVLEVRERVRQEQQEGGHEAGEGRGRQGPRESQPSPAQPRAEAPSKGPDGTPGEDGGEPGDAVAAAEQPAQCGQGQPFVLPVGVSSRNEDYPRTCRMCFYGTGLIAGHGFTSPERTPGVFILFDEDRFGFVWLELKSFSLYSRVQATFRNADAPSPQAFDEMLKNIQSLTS
T1 sequence (chain, as listed by the source, chain 2 of 2): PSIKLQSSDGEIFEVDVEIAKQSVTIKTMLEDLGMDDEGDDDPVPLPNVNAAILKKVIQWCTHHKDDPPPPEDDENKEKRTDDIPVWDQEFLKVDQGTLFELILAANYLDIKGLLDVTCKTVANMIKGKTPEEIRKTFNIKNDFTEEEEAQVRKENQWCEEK
Chain of FBXO31 D334N/SKP1 (Q5XUX0 whole entry D334N, chain 1 of 2): as the sequence (Q5XUX0 whole entry, chain 1 of 2) above, with D334N counted along it
Chain of FBXO31 D334N/SKP1 (chain, as listed by the source D334N, chain 2 of 2): as the sequence (chain, as listed by the source, chain 2 of 2) above

{FL}-KEEDEKGSRASDDFRDLR-NH2 [FL-Pep2-NH2 (amidated model/screening peptide)]: the Kd – broadly, a measure of binding affinity in units of concentration – in test [1] was 22 nM and 16 nM.
Regarding {FL}-KAATPTDVRDVDI-OH [FL-CycD1-OH], the binding result in test [2] and in test [3] was “no binding” throughout.
Regarding {FL}-KEEDEKGSRASDDFRDLR-OH [FL-Pep2-OH (non-amidated model peptide)], the binding result in test [3] is listed as “no binding”.
Consider {FL}-KAATPTDVRDVDI-NH2 [FL-CycD1-NH2], for which the Kd in test [1] turned out to be 59 nM.
